Reference: patent publication US20260242419A1, “A CYCLIC PEPTIDE FOR TRAPPING INTERLEUKIN-1 BETA” (Merck Sharp & Dohme LLC, priority 2023, published 2026)
Starred links: 1 amine or outer side, 2 acyl side, 3 side chain; linkers in the order of their positions; H or OH if unused. Non-standard residues stand in square brackets, D forms with d. dProc3Bn4Pyrim2OMe = (2R,3S)-3-[[4-(2-methoxypyrimidin-5-yl)phenyl]methyl]pyrrolidine-2-carboxylic acid, COc1ncc(-c2ccc(C[C@H]3CCN([*:1])[C@H]3C(=O)[*:2])cc2)cn1; dProc3Bn4Pyrim2NH2 = (2R,3S)-3-[[4-(2-aminopyrimidin-5-yl)phenyl]methyl]pyrrolidine-2-carboxylic acid, Nc1ncc(-c2ccc(C[C@H]3CCN([*:1])[C@H]3C(=O)[*:2])cc2)cn1; dProc3Bn4Pyraz5NH2 = (2R,3S)-3-[[4-(5-aminopyrazin-2-yl)phenyl]methyl]pyrrolidine-2-carboxylic acid, Nc1cnc(-c2ccc(C[C@H]3CCN([*:1])[C@H]3C(=O)[*:2])cc2)cn1; dProc3Bn4Im4NMe = (2R,3S)-3-(4-(1-methyl-1H-imidazol-4-yl)benzyl)pyrrolidine-2-carboxylic acid, Cn1cnc(-c2ccc(C[C@H]3CCN([*:1])[C@H]3C(=O)[*:2])cc2)c1; dProc3Bn4Im2NMe = (2R,3S)-3-(4-(1-methyl-1H-imidazol-2-yl)benzyl)pyrrolidine-2-carboxylic acid, Cn1ccnc1-c1ccc(C[C@H]2CCN([*:1])[C@H]2C(=O)[*:2])cc1; dProc3Bn4Iso3Me = (2R,3S)-3-(4-(3-methylisoxazol-4-yl)benzyl)pyrrolidine-2-carboxylic acid, Cc1nocc1-c1ccc(C[C@H]2CCN([*:1])[C@H]2C(=O)[*:2])cc1; dProc3Bn4Pyrz = (2R,3S)-3-[(4-pyridazin-4-ylphenyl)methyl]pyrrolidine-2-carboxylic acid, O=C([C@H]1[C@@H](Cc2ccc(-c3ccnnc3)cc2)CCN1[*:1])[*:2]; dProc3Bn4Pyr2 = (2R,3S)-3-[[4-(2-pyridyl)phenyl]methyl]pyrrolidine-2-carboxylic acid, O=C([C@H]1[C@@H](Cc2ccc(-c3ccccn3)cc2)CCN1[*:1])[*:2]; dProc3Bn4Pyr3 = (2R,3S)-3-[[4-(3-pyridyl)phenyl]methyl]pyrrolidine-2-carboxylic acid, O=C([C@H]1[C@@H](Cc2ccc(-c3cccnc3)cc2)CCN1[*:1])[*:2]; dProc3Bn4Pyr4 = (2R,3S)-3-[[4-(4-pyridyl)phenyl]methyl]pyrrolidine-2-carboxylic acid, O=C([C@H]1[C@@H](Cc2ccc(-c3ccncc3)cc2)CCN1[*:1])[*:2]; Trp(βS-Me,4-F) = C[C@@H](c1c[nH]c2cccc(F)c12)[C@H](N)C(=O)O; Bip(4'-COOH) = N[C@@H](Cc1ccc(-c2ccc(C(=O)O)cc2)cc1)C(=O)O; dPro(4R-Bzl(4-F)) = O=C(O)[C@H]1C[C@@H](Cc2ccc(F)cc2)CN1; Ala(pyrimidin-5-yl) = N[C@@H](Cc1cncnc1)C(=O)O; Phe(4-COOH) = N[C@@H](Cc1ccc(C(=O)O)cc1)C(=O)O; Pro(cis-4-F) = O=C(O)[C@@H]1C[C@H](F)CN1; 4Pal = N[C@@H](Cc1ccncc1)C(=O)O; Api = NC1(C(=O)O)CCNCC1; Dab = NCC[C@H](N)C(=O)O; Aib = CC(C)(N)C(=O)O

B1: SEQ ID NO: 62 (peptide)
peptide: cyclo([Bip(4'-COOH)][4Pal][Phe(4-COOH)]G[Pro(cis-4-F)][Trp(βS-Me,4-F)][Aib]EW[Aib][Ala(pyrimidin-5-yl)]Q[Dab]G[dProc3Bn4Iso3Me])
SMILES: Cc1nocc1-c1ccc(C[C@H]2CCN3C(=O)CNC(=O)[C@H](CCN)NC(=O)[C@H](CCC(N)=O)NC(=O)[C@H](Cc4cncnc4)NC(=O)C(C)(C)NC(=O)[C@H](Cc4c[nH]c5ccccc45)NC(=O)[C@H](CCC(=O)O)NC(=O)C(C)(C)NC(=O)[C@H]([C@@H](C)c4c[nH]c5cccc(F)c45)NC(=O)[C@@H]4C[C@H](F)CN4C(=O)CNC(=O)[C@H](Cc4ccc(C(=O)O)cc4)NC(=O)[C@H](Cc4ccncc4)NC(=O)[C@H](Cc4ccc(-c5ccc(C(=O)O)cc5)cc4)NC(=O)[C@@H]23)cc1
B2: SEQ ID NO: 55 (peptide)
peptide: cyclo([Bip(4'-COOH)][4Pal][Phe(4-COOH)]G[Pro(cis-4-F)][Trp(βS-Me,4-F)][Aib]EW[Aib][Ala(pyrimidin-5-yl)]Q[Dab]G[dProc3Bn4Pyr4])
SMILES: C[C@@H](c1c[nH]c2cccc(F)c12)[C@@H]1NC(=O)[C@@H]2C[C@H](F)CN2C(=O)CNC(=O)[C@H](Cc2ccc(C(=O)O)cc2)NC(=O)[C@H](Cc2ccncc2)NC(=O)[C@H](Cc2ccc(-c3ccc(C(=O)O)cc3)cc2)NC(=O)[C@H]2[C@@H](Cc3ccc(-c4ccncc4)cc3)CCN2C(=O)CNC(=O)[C@H](CCN)NC(=O)[C@H](CCC(N)=O)NC(=O)[C@H](Cc2cncnc2)NC(=O)C(C)(C)NC(=O)[C@H](Cc2c[nH]c3ccccc23)NC(=O)[C@H](CCC(=O)O)NC(=O)C(C)(C)NC1=O
B3: SEQ ID NO: 58 (peptide)
peptide: cyclo([Bip(4'-COOH)][4Pal][Phe(4-COOH)]G[Pro(cis-4-F)][Trp(βS-Me,4-F)][Aib]EW[Aib][Ala(pyrimidin-5-yl)]Q[Dab]G[dProc3Bn4Pyrz])
SMILES: C[C@@H](c1c[nH]c2cccc(F)c12)[C@@H]1NC(=O)[C@@H]2C[C@H](F)CN2C(=O)CNC(=O)[C@H](Cc2ccc(C(=O)O)cc2)NC(=O)[C@H](Cc2ccncc2)NC(=O)[C@H](Cc2ccc(-c3ccc(C(=O)O)cc3)cc2)NC(=O)[C@H]2[C@@H](Cc3ccc(-c4ccnnc4)cc3)CCN2C(=O)CNC(=O)[C@H](CCN)NC(=O)[C@H](CCC(N)=O)NC(=O)[C@H](Cc2cncnc2)NC(=O)C(C)(C)NC(=O)[C@H](Cc2c[nH]c3ccccc23)NC(=O)[C@H](CCC(=O)O)NC(=O)C(C)(C)NC1=O
B4: SEQ ID NO: 63 (peptide)
peptide: cyclo([Bip(4'-COOH)][4Pal][Phe(4-COOH)]G[Pro(cis-4-F)][Trp(βS-Me,4-F)][Aib]EW[Aib][Ala(pyrimidin-5-yl)]Q[Dab]G[dProc3Bn4Im2NMe])
SMILES: C[C@@H](c1c[nH]c2cccc(F)c12)[C@@H]1NC(=O)[C@@H]2C[C@H](F)CN2C(=O)CNC(=O)[C@H](Cc2ccc(C(=O)O)cc2)NC(=O)[C@H](Cc2ccncc2)NC(=O)[C@H](Cc2ccc(-c3ccc(C(=O)O)cc3)cc2)NC(=O)[C@H]2[C@@H](Cc3ccc(-c4nccn4C)cc3)CCN2C(=O)CNC(=O)[C@H](CCN)NC(=O)[C@H](CCC(N)=O)NC(=O)[C@H](Cc2cncnc2)NC(=O)C(C)(C)NC(=O)[C@H](Cc2c[nH]c3ccccc23)NC(=O)[C@H](CCC(=O)O)NC(=O)C(C)(C)NC1=O
B5: SEQ ID NO: 65 (peptide)
peptide: cyclo([Bip(4'-COOH)][4Pal][Phe(4-COOH)]G[Pro(cis-4-F)][Trp(βS-Me,4-F)][Aib]EW[Api][Ala(pyrimidin-5-yl)]Q[Dab]G[dPro(4R-Bzl(4-F))])
SMILES: C[C@@H](c1c[nH]c2cccc(F)c12)[C@@H]1NC(=O)[C@@H]2C[C@H](F)CN2C(=O)CNC(=O)[C@H](Cc2ccc(C(=O)O)cc2)NC(=O)[C@H](Cc2ccncc2)NC(=O)[C@H](Cc2ccc(-c3ccc(C(=O)O)cc3)cc2)NC(=O)[C@H]2C[C@@H](Cc3ccc(F)cc3)CN2C(=O)CNC(=O)[C@H](CCN)NC(=O)[C@H](CCC(N)=O)NC(=O)[C@H](Cc2cncnc2)NC(=O)C2(CCNCC2)NC(=O)[C@H](Cc2c[nH]c3ccccc23)NC(=O)[C@H](CCC(=O)O)NC(=O)C(C)(C)NC1=O
B6: SEQ ID NO: 6 (peptide)
peptide: cyclo([Bip(4'-COOH)][4Pal][Phe(4-COOH)]G[Pro(cis-4-F)][Trp(βS-Me,4-F)][Aib]AW[Aib][Ala(pyrimidin-5-yl)]Q[Dab]G[dPro(4R-Bzl(4-F))])
SMILES: C[C@@H]1NC(=O)C(C)(C)NC(=O)[C@H]([C@@H](C)c2c[nH]c3cccc(F)c23)NC(=O)[C@@H]2C[C@H](F)CN2C(=O)CNC(=O)[C@H](Cc2ccc(C(=O)O)cc2)NC(=O)[C@H](Cc2ccncc2)NC(=O)[C@H](Cc2ccc(-c3ccc(C(=O)O)cc3)cc2)NC(=O)[C@H]2C[C@@H](Cc3ccc(F)cc3)CN2C(=O)CNC(=O)[C@H](CCN)NC(=O)[C@H](CCC(N)=O)NC(=O)[C@H](Cc2cncnc2)NC(=O)C(C)(C)NC(=O)[C@H](Cc2c[nH]c3ccccc23)NC1=O
B7: SEQ ID NO: 56 (peptide)
peptide: cyclo([Bip(4'-COOH)][4Pal][Phe(4-COOH)]G[Pro(cis-4-F)][Trp(βS-Me,4-F)][Aib]EW[Aib][Ala(pyrimidin-5-yl)]Q[Dab]G[dProc3Bn4Pyr3])
SMILES: C[C@@H](c1c[nH]c2cccc(F)c12)[C@@H]1NC(=O)[C@@H]2C[C@H](F)CN2C(=O)CNC(=O)[C@H](Cc2ccc(C(=O)O)cc2)NC(=O)[C@H](Cc2ccncc2)NC(=O)[C@H](Cc2ccc(-c3ccc(C(=O)O)cc3)cc2)NC(=O)[C@H]2[C@@H](Cc3ccc(-c4cccnc4)cc3)CCN2C(=O)CNC(=O)[C@H](CCN)NC(=O)[C@H](CCC(N)=O)NC(=O)[C@H](Cc2cncnc2)NC(=O)C(C)(C)NC(=O)[C@H](Cc2c[nH]c3ccccc23)NC(=O)[C@H](CCC(=O)O)NC(=O)C(C)(C)NC1=O
B8: SEQ ID NO: 57 (peptide)
peptide: cyclo([Bip(4'-COOH)][4Pal][Phe(4-COOH)]G[Pro(cis-4-F)][Trp(βS-Me,4-F)][Aib]EW[Aib][Ala(pyrimidin-5-yl)]Q[Dab]G[dProc3Bn4Pyraz5NH2])
SMILES: C[C@@H](c1c[nH]c2cccc(F)c12)[C@@H]1NC(=O)[C@@H]2C[C@H](F)CN2C(=O)CNC(=O)[C@H](Cc2ccc(C(=O)O)cc2)NC(=O)[C@H](Cc2ccncc2)NC(=O)[C@H](Cc2ccc(-c3ccc(C(=O)O)cc3)cc2)NC(=O)[C@H]2[C@@H](Cc3ccc(-c4cnc(N)cn4)cc3)CCN2C(=O)CNC(=O)[C@H](CCN)NC(=O)[C@H](CCC(N)=O)NC(=O)[C@H](Cc2cncnc2)NC(=O)C(C)(C)NC(=O)[C@H](Cc2c[nH]c3ccccc23)NC(=O)[C@H](CCC(=O)O)NC(=O)C(C)(C)NC1=O
B9: SEQ ID NO: 59 (peptide)
peptide: cyclo([Bip(4'-COOH)][4Pal][Phe(4-COOH)]G[Pro(cis-4-F)][Trp(βS-Me,4-F)][Aib]EW[Aib][Ala(pyrimidin-5-yl)]Q[Dab]G[dProc3Bn4Pyrim2NH2])
SMILES: C[C@@H](c1c[nH]c2cccc(F)c12)[C@@H]1NC(=O)[C@@H]2C[C@H](F)CN2C(=O)CNC(=O)[C@H](Cc2ccc(C(=O)O)cc2)NC(=O)[C@H](Cc2ccncc2)NC(=O)[C@H](Cc2ccc(-c3ccc(C(=O)O)cc3)cc2)NC(=O)[C@H]2[C@@H](Cc3ccc(-c4cnc(N)nc4)cc3)CCN2C(=O)CNC(=O)[C@H](CCN)NC(=O)[C@H](CCC(N)=O)NC(=O)[C@H](Cc2cncnc2)NC(=O)C(C)(C)NC(=O)[C@H](Cc2c[nH]c3ccccc23)NC(=O)[C@H](CCC(=O)O)NC(=O)C(C)(C)NC1=O
B10: SEQ ID NO: 60 (peptide)
peptide: cyclo([Bip(4'-COOH)][4Pal][Phe(4-COOH)]G[Pro(cis-4-F)][Trp(βS-Me,4-F)][Aib]EW[Aib][Ala(pyrimidin-5-yl)]Q[Dab]G[dProc3Bn4Pyrim2OMe])
SMILES: COc1ncc(-c2ccc(C[C@H]3CCN4C(=O)CNC(=O)[C@H](CCN)NC(=O)[C@H](CCC(N)=O)NC(=O)[C@H](Cc5cncnc5)NC(=O)C(C)(C)NC(=O)[C@H](Cc5c[nH]c6ccccc56)NC(=O)[C@H](CCC(=O)O)NC(=O)C(C)(C)NC(=O)[C@H]([C@@H](C)c5c[nH]c6cccc(F)c56)NC(=O)[C@@H]5C[C@H](F)CN5C(=O)CNC(=O)[C@H](Cc5ccc(C(=O)O)cc5)NC(=O)[C@H](Cc5ccncc5)NC(=O)[C@H](Cc5ccc(-c6ccc(C(=O)O)cc6)cc5)NC(=O)[C@@H]34)cc2)cn1
B11: SEQ ID NO: 61 (peptide)
peptide: cyclo([Bip(4'-COOH)][4Pal][Phe(4-COOH)]G[Pro(cis-4-F)][Trp(βS-Me,4-F)][Aib]EW[Aib][Ala(pyrimidin-5-yl)]Q[Dab]G[dProc3Bn4Pyr2])
SMILES: C[C@@H](c1c[nH]c2cccc(F)c12)[C@@H]1NC(=O)[C@@H]2C[C@H](F)CN2C(=O)CNC(=O)[C@H](Cc2ccc(C(=O)O)cc2)NC(=O)[C@H](Cc2ccncc2)NC(=O)[C@H](Cc2ccc(-c3ccc(C(=O)O)cc3)cc2)NC(=O)[C@H]2[C@@H](Cc3ccc(-c4ccccn4)cc3)CCN2C(=O)CNC(=O)[C@H](CCN)NC(=O)[C@H](CCC(N)=O)NC(=O)[C@H](Cc2cncnc2)NC(=O)C(C)(C)NC(=O)[C@H](Cc2c[nH]c3ccccc23)NC(=O)[C@H](CCC(=O)O)NC(=O)C(C)(C)NC1=O
B12: SEQ ID NO: 64 (peptide)
peptide: cyclo([Bip(4'-COOH)][4Pal][Phe(4-COOH)]G[Pro(cis-4-F)][Trp(βS-Me,4-F)][Aib]EW[Aib][Ala(pyrimidin-5-yl)]Q[Dab]G[dProc3Bn4Im4NMe])
SMILES: C[C@@H](c1c[nH]c2cccc(F)c12)[C@@H]1NC(=O)[C@@H]2C[C@H](F)CN2C(=O)CNC(=O)[C@H](Cc2ccc(C(=O)O)cc2)NC(=O)[C@H](Cc2ccncc2)NC(=O)[C@H](Cc2ccc(-c3ccc(C(=O)O)cc3)cc2)NC(=O)[C@H]2[C@@H](Cc3ccc(-c4cn(C)cn4)cc3)CCN2C(=O)CNC(=O)[C@H](CCN)NC(=O)[C@H](CCC(N)=O)NC(=O)[C@H](Cc2cncnc2)NC(=O)C(C)(C)NC(=O)[C@H](Cc2c[nH]c3ccccc23)NC(=O)[C@H](CCC(=O)O)NC(=O)C(C)(C)NC1=O

Target: Recombinant human IL-1β (BioLegend 579404) (human, UniProt P01584 117-269)
Experiment: cell-based or functional assay

MRC5 IC50 [nM]	Binder
0.021	B1
0.024	B2
0.037	B3
0.018	B4
0.025	B5
0.057	B6
0.022	B7
0.019	B8
0.018	B9
0.018	B10
0.022	B11
0.014	B12
